Results from patent US20120121576A1 (ACCELERON PHARMA, published 2012).

Legend:
[1] = biological target: T1, ActRIIA-Fc (ActRIIA-mFc, dimeric protein) (human, UniProt P27037 20-135); assay: SPR (BIACORE): Ab-14E1 captured on a CM5 chip by immobilized anti-mFc IgG, ActRIIA-mFc injected at different concentrations, nonlinear regression
Description: (§1) FIG. 9 depicts the kinetics of ActRIIA-Fc binding to Ab-14E1 as determined by BIACORE™-based analysis. A. Ab-14E1 was captured on a chip with covalently immobilized anti-mFC IgG and then exposed to ActRIIA-Fc at different concentrations. […] RU, relative units.

[2] = biological target: ActRIIA expressed by A204 human rhabdomyosarcoma cells (human, UniProt P27037 20-513); assay: cell-based or functional assay
Chain of ActRIIA expressed by A204 human rhabdomyosarcoma cells (P27037 20-513 limits assumed): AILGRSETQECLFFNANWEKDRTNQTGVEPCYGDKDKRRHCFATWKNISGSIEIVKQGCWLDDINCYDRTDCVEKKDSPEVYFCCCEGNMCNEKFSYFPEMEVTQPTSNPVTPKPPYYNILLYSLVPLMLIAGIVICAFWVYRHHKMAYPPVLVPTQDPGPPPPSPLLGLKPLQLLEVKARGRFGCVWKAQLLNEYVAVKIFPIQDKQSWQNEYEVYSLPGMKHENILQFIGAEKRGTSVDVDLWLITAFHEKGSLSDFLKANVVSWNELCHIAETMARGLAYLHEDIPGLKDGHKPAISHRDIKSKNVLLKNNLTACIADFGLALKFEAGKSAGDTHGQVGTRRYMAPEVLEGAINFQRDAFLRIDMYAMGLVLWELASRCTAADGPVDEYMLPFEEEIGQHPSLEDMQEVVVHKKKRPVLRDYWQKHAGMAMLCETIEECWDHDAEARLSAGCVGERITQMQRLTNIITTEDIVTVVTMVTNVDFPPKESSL

[3] = biological target: T2, monomeric ActRIIA tagged with histidine (ActRIIA-His) (human, UniProt P27037 20-135); assay: SPR (BIACORE)
T2 construct: also called monomeric extracellular domain of ActRIIA tagged with histidine
T2 sequence (P27037 other isoform, or with tags, fused parts or gaps limits assumed): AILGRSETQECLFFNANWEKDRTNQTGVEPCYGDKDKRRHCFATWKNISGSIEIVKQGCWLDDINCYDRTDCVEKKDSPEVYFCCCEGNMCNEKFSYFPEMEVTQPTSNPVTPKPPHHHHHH

[4] = biological target: T1, ActRIIA-Fc (ActRIIA-mFc, dimeric …); assay: SPR (BIACORE); Ab-14E1 captured by immobilized anti-mFc IgG, ActRIIA-Fc as analyte
Description: as §1

T1 sequence (P27037 20-135 limits assumed): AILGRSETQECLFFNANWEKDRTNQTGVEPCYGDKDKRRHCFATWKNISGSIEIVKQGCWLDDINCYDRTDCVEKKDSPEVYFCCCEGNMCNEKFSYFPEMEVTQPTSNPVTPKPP

kon [1]: 86000 M⁻¹ s⁻¹ | IC50 of inhibition of activin A-stimulated reporter gene expression (pGL3(CAGA)12 luciferase) in A204 cells [2]: 57.1 ng/ml | fold lower affinity than for ActRIIA-mFc [3]: 10 fold | Kd [4]: ~0.012 nM | koff [4]: ~1e-06 s⁻¹
B1: Ab-14E1 (antibody 14E1; hybridoma subclone 14E1.H8.H1) (antibody, V domains shown)
VH: DVQLQESGPGLVKPSQSLSLTCSVTGYSITSGYYWNWIRQFPGNKLEWMGYISYDGSNNYNPSLINRISITRDTSKNQFFLKLNSVTTEDTATYFCASYAYRNDVRFAYWGQGTLVTVSA
VL: DIQMTQTTSSLSASLGDRVTISCRASQDISNFLNWYQQKPDGTVKLLIYFTSRLHSGVPSRFSGSGSGTDYSLTITNLEQEDIATYFCQQGNTLPWTFGGGTKLEIK
